The values below come from the Immune Epitope Database (IEDB).

Targets include HLA-A*02:03; HLA-A*02:02; HLA-A*02:06; HLA-A*26:01; HLA-A*23:01.
Holding throughout (test): IEDB peptide-MHC binding, purified MHC/competitive/radioactivity; filed as Kd, often an IC50 or EC50 that approximates it; ≥ and ≤ were set here for values at or beyond the usual limits of such assays
Another experiment deals with HLA-A*30:02. The following applies: source organism: Dengue virus 1 Brazil/97-11/1997.
[1] abbreviates: source organism: Vaccinia virus WR.
Setting [2] is: source organism: Dengue virus 4 Philippines/H241/1956.
Where [3] appears, read: source organism: Dengue virus 2 Jamaica/1409/1983.
[4] abbreviates: source organism: SARS coronavirus Tor2.
Setting [5] is: source organism: Mammarenavirus machupoense.

Take SIKMIYDLNA: the results for the Kd with HLA-A*02:03 (setting [1]), with HLA-A*02:02 (setting [1]) and with HLA-A*02:06 (setting [1]) were 257 nM, 852 nM and 1030 nM, respectively.

On to ITDDSDDYEL, for which the figures for the Kd with HLA-A*02:03 (setting [1]), in the experiment with HLA-A*02:02 (setting [1]) and with HLA-A*02:06 (setting [1]) were 11900 nM, 687 nM and 49.3 nM, respectively.

Regarding SLVKESMASL, the figures for the Kd with HLA-A*02:03 (setting [1]), with HLA-A*02:02 (setting [1]) and in the experiment with HLA-A*02:06 (setting [1]) were 7.78 nM, 994 nM and 1430 nM, respectively.

Turning to EKTQAIDGEF, in the experiment with HLA-A*26:01 (source organism: Dengue virus 4 Dominica/814669/1981), the Kd (in general, the concentration at which binding is half-saturated) was at least 69700 nM.

In the case of RAKRKPAMST, the Kd with HLA-A*02:03 (setting [1]) stood at 1380 nM; in the experiment with HLA-A*02:02 (setting [1]) it was 977 nM; in the experiment with HLA-A*02:06 (setting [1]) it was 1550 nM.

FQPESPARL: in the experiment with HLA-A*02:06 (setting [2]), the Kd amounted to 36.9 nM.

As for GLLDSIKMI, the Kd in the experiment with HLA-A*02:03 (setting [1]) was determined as 14.1 nM; in the experiment with HLA-A*02:02 (setting [1]), 80 nM; with HLA-A*02:06 (setting [1]), 43.4 nM.

Take KLPTWLGAA: the Kd in the experiment with HLA-A*02:03 (setting [1]) came out at 8.02 nM; in the experiment with HLA-A*02:02 (setting [1]), 499 nM; with HLA-A*02:06 (setting [1]) it was 9.42 nM.

As for SMYGKAFNHA, the Kd with HLA-A*02:03 (setting [1]) amounted to 0.929 nM; in the experiment with HLA-A*02:02 (setting [1]) it was 6.58 nM; with HLA-A*02:06 (setting [1]) it was 4.03 nM.

Regarding FTFGDTALYV, the Kd in the experiment with HLA-A*02:03 (setting [1]) was 48.1 nM; in the experiment with HLA-A*02:02 (setting [1]), 24.3 nM; in the experiment with HLA-A*02:06 (setting [1]) it was 3.51 nM.

Consider EQRRSTIFDI, for which the values for the Kd with HLA-A*02:03 (setting [1]), with HLA-A*02:02 (setting [1]) and with HLA-A*02:06 (setting [1]) were 11400 nM, at least 23000 nM and at least 25600 nM, respectively.

As to LMAIDLGEL, in the experiment with HLA-A*02:03 (setting [3]), the dissociation constant (Kd) turned out to be 15.3 nM.

On to GQVMLLILCV, for which the Kd with HLA-A*02:06 (setting [3]) came out at 77.2 nM.

For the sequence KIIAVFDSKL, the Kd was found to be 56.8 nM in the experiment with HLA-A*02:03 (setting [1]), 24.6 nM with HLA-A*02:02 (setting [1]) and 59.4 nM with HLA-A*02:06 (setting [1]).

As to NVISKIYTLI, the Kd amounted to 32.7 nM with HLA-A*02:03 (setting [1]), 0.985 nM with HLA-A*02:02 (setting [1]) and 196 nM with HLA-A*02:06 (setting [1]).

As for LLAMGCYSQV, in the experiment with HLA-A*02:03 (setting [2]), the Kd was determined as 2.67 nM.

Regarding KIVGLYGNGV, the Kd with HLA-A*02:06 (source organism: Dengue virus 1 Brazil/97-11/1997) stood at 14.7 nM.

Take TTMRGAKRM: in the experiment with HLA-A*26:01 (setting [3]), the Kd is 8190 nM.

Consider STYPGNTFV, for which the Kd with HLA-A*02:03 (setting [1]) is 0.192 nM; with HLA-A*02:02 (setting [1]), 10.8 nM; with HLA-A*02:06 (setting [1]), 0.464 nM.

Consider RLSAAIGKA, for which the Kd in the experiment with HLA-A*02:03 (source organism: Dengue virus 1 Singapore/S275/1990) came to 70.7 nM.

As to FQESFYEDI, the results for the dissociation constant Kd in the experiment with HLA-A*02:03 (setting [1]), in the experiment with HLA-A*02:02 (setting [1]) and with HLA-A*02:06 (setting [1]) were 4420 nM, 2280 nM and 185 nM, respectively.

Take STFNMWREI: the Kd in the experiment with HLA-A*02:03 (setting [1]) was found to be 713 nM; in the experiment with HLA-A*02:02 (setting [1]), 5820 nM; with HLA-A*02:06 (setting [1]), 94.6 nM.

As to TLGVYDYLV, the Kd with HLA-A*02:03 (setting [4]) is 936 nM; with HLA-A*02:02 (setting [4]), 0.245 nM; in the experiment with HLA-A*02:06 (setting [4]) it was 74.8 nM.

On to SKIPGGNMY, for which the Kd with HLA-A*30:02 was found to be 2450 nM.

WIKDIMTST: the Kd with HLA-A*02:03 (setting [1]) stood at 11.5 nM; with HLA-A*02:02 (setting [1]) it was 193 nM; with HLA-A*02:06 (setting [1]) it was 136 nM.

Turning to EVEDYGFGM, the Kd in the experiment with HLA-A*26:01 (setting [2]) was 3900 nM.

Take TFIRSTMPL: in the experiment with HLA-A*23:01 (setting [2]), the Kd amounted to 255 nM.

With FLAFLLFLV, the Kd with HLA-A*02:03 (setting [4]) worked out at 58.3 nM; with HLA-A*02:02 (setting [4]), 1.81 nM; with HLA-A*02:06 (setting [4]), 9 nM.

On to GYISTRVEM, for which, in the experiment with HLA-A*23:01 (setting [3]), the Kd amounted to 1140 nM.

Regarding PVVYHDDDNT, the Kd with HLA-A*02:03 (setting [1]) is at least 26800 nM; with HLA-A*02:02 (setting [1]), 9140 nM; in the experiment with HLA-A*02:06 (setting [1]), 1350 nM.

Take KSYFTNAAL: the Kd with HLA-A*02:03 (setting [5]) turned out to be 7180 nM; with HLA-A*02:02 (setting [5]), 593 nM; in the experiment with HLA-A*02:06 (setting [5]), 12000 nM.

For MAAAKTPVIV, the Kd came to 156 nM with HLA-A*02:03 (setting [1]), 6010 nM with HLA-A*02:02 (setting [1]) and 3630 nM with HLA-A*02:06 (setting [1]).

As for YVIRHVDGKI, the Kd stood at 114 nM with HLA-A*02:03 (setting [1]), 621 nM with HLA-A*02:02 (setting [1]) and 522 nM in the experiment with HLA-A*02:06 (setting [1]).

KLFKRERDA: the values for the Kd with HLA-A*02:03 (setting [1]), in the experiment with HLA-A*02:02 (setting [1]) and in the experiment with HLA-A*02:06 (setting [1]) were 985 nM, 2390 nM and 14900 nM, respectively.

With QILEENMEV, in the experiment with HLA-A*02:06 (setting [2]), the Kd came out at 30.5 nM.

As to QLMCQPILL, the Kd with HLA-A*02:03 (setting [4]) came to 11.9 nM; in the experiment with HLA-A*02:02 (setting [4]), 2.99 nM; in the experiment with HLA-A*02:06 (setting [4]), 76.9 nM.

As for DVNSVQFSI, the Kd worked out at 16200 nM with HLA-A*02:03 (setting [1]), 10400 nM with HLA-A*02:02 (setting [1]) and 16900 nM with HLA-A*02:06 (setting [1]).

For the sequence YASLTTIGT, the Kd in the experiment with HLA-A*02:03 (setting [1]) came to 144 nM; with HLA-A*02:02 (setting [1]), 409 nM; in the experiment with HLA-A*02:06 (setting [1]), 161 nM.

As to PVDLVKSSFV, the Kd with HLA-A*02:03 (setting [1]) is 9640 nM; with HLA-A*02:02 (setting [1]), 6610 nM; in the experiment with HLA-A*02:06 (setting [1]), at least 26600 nM.

As to YLRGHTESI, the dissociation constant (Kd) with HLA-A*02:03 (setting [1]) came to 0.176 nM; in the experiment with HLA-A*02:02 (setting [1]), 0.206 nM; in the experiment with HLA-A*02:06 (setting [1]), 90.9 nM.

As to ITLDILTEI, the Kd with HLA-A*02:06 (setting [2]) was found to be 8.88 nM.

Take EISSNDNAKI: the values for the Kd in the experiment with HLA-A*02:03 (setting [1]), with HLA-A*02:02 (setting [1]) and with HLA-A*02:06 (setting [1]) were 194 nM, 11200 nM and 162 nM, respectively.

For the sequence FLRPVLKAM, the Kd came to 9.75 nM with HLA-A*02:03 (setting [1]), 1380 nM with HLA-A*02:02 (setting [1]) and 5480 nM in the experiment with HLA-A*02:06 (setting [1]).

Take VADLSARNKL: the Kd with HLA-A*02:03 (setting [1]) is 2160 nM; with HLA-A*02:02 (setting [1]), 1170 nM; with HLA-A*02:06 (setting [1]) it was at least 35800 nM.
